According to publication PMC7475178, “Dynamic regulation of anthocyanin biosynthesis at different light intensities by the BT2-TCP46-MYB1 module in apple”:

T1: MdMYB1-HIS (Malus domestica, UniProt M1UZJ0 1-243)
T1 sequence: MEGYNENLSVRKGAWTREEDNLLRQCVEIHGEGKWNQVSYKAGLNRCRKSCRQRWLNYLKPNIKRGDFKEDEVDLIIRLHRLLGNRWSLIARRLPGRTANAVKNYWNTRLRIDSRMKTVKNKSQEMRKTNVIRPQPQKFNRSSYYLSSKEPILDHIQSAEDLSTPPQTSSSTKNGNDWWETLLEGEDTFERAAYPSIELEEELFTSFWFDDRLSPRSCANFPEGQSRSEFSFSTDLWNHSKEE

B1: MdDFR-Probe (dsDNA)
DNA 1: CGTGCGTCAACCGTTAGGAAAGCACG
DNA 2: CGTGCTTTCCTAACGGTTGACGCACG
B2: MdUF3GT-Probe (dsDNA)
DNA 1: ACCTTCCCGTCAGTTATTGCAGGTGG
DNA 2: CCACCTGCAATAACTGACGGGAAGGT

Target: T1, MdMYB1-HIS
Experiment: EMSA; Proteins and biotin probes mixed in binding buffer for 25 min, acrylamide gel; buffer, salt, pH and temperature not stated
Settings: protein: recombinant; tags: His (pET32a); label: biotin; blunt

Row | Binder | binding result
1 | B1 | binds
2 | B2 | binds
